Molecular target: FLAG-Sur1 (UniProt Q09427)
Assay: FRET or BRET

Sequence of UniProt Q09427 (Q09427 whole entry): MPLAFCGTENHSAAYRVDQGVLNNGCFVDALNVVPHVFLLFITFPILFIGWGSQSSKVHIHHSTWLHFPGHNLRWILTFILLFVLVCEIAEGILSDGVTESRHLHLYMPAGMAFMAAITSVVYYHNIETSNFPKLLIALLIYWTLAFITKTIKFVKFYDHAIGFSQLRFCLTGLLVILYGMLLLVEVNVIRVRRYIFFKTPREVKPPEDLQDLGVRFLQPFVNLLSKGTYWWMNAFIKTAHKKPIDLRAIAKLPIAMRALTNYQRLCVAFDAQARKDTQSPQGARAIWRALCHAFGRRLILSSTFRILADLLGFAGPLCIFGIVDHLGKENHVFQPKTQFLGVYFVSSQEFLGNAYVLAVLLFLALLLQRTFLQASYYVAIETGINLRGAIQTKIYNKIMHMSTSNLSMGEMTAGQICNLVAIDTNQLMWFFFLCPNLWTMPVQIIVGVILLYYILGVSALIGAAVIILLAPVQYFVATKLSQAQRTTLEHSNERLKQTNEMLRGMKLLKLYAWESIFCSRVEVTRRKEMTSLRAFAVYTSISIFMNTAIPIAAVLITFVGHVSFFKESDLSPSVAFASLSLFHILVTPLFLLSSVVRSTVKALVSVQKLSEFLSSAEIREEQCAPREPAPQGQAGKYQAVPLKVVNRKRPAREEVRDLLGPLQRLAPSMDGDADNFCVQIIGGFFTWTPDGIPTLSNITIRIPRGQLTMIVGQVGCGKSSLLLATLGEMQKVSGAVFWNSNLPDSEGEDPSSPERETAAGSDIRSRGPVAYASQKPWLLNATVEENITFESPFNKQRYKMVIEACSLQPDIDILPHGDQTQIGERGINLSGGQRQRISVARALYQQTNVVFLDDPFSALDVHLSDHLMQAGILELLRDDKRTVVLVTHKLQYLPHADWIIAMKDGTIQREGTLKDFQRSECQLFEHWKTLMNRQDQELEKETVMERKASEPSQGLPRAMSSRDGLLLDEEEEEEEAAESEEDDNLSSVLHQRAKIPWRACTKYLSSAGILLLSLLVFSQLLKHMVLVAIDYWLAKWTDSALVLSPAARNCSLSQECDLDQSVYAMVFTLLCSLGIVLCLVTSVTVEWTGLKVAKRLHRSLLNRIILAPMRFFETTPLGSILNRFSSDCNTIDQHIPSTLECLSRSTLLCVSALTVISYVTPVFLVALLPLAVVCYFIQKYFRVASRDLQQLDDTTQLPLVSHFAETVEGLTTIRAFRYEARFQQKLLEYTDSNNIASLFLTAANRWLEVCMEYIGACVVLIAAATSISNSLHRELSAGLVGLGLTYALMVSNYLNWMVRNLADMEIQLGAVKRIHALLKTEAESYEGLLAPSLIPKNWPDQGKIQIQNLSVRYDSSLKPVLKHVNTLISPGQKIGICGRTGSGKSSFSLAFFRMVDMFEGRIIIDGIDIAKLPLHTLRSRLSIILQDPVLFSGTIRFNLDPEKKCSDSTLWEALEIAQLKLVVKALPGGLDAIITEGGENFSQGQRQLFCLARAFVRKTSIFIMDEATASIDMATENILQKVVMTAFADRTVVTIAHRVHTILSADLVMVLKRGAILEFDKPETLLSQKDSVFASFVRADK

## Myc-Trpm4 (from UniProt Q7TN37-1 1-1213) (natural protein)
  FRET efficiency at steady state: 11%

— publication PMC3561583
